For seven molecules, Kd results are on record in patent CN112159469A (SHANGHAI PUBLIC HEALTH CLINICAL CT, dated 2021).

B1: 单抗3D13 (antibody, V domains shown)
VH: EVQLVESGGGLIQPGGSLRLSCAASGLTVSSNYMSWVRQAPGKGLEWVSVIYSGGSAFYADSVKGRFTISRDNSKNTLYLQMNSLRAEDTAVYYCARDLSSAGGMDVWGQGTTVTVSS
VL: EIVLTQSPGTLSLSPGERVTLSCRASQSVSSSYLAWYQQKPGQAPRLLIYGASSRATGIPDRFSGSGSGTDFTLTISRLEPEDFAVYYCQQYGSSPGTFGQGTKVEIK
B2: 单抗20E21 (antibody, V domains shown)
VH: EVQLVESGGGLFQPGGSLRLSCAASGLTVSSNYMSWVRQAPGKGLECVSVIYSGGSTYYADSVKGRFTISRDNSKNTLYLQMNSLRAEDTAVYYCARDRGMLHGMDVWGQGTTVTVSS
VL: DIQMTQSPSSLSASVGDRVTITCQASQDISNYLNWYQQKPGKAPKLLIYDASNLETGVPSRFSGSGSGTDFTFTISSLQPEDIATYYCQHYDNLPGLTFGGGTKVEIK
B3: 单抗10C2 (antibody, V domains shown)
VH: EVQLVESGGGLIQPGGSLRLSCAASGLTVSSNYMNWVRQAPGKGLEWVSVIYSGGSTYYADSVKGRFTISRDNSKNTLYLQMNSLRAEDTAVYYCARLLVATIRDFDYWGQGTLVTVSS
VL: not shown
B4: 单抗22H22 (antibody, V domains shown)
VH: EVQLVESGGALIQPGGSLRLSCAASGLTVSSNYMTWVRQAPGKGLEWVSVIYSGGSTYYADSVKGRFTISRDNSKNTLYLQMNSLRAEDTAVYYCARGYGDYENYFDYWGQGTLVTVSS
VL: AIQLTQSPSSLSASVGDRVTITCRASQGISSYLAWYQQKPGKAPKLLIYAASTLQGGVPSRFSGSGSGTDFTLTISSLQPEDFATYYCQHLWTFGQGTKVEIK
B5: 单抗16L9 (antibody, V domains shown)
VH: EVQLVESGGGLIQPGGSLRLSCAASGFTVSSNYMSWVRQAPGKGLEWVSVIYSGGSTYYADSVKGRFTISRDNSENTLYLQMNSLRAEDTAVYYCARGEIQPYYYYGMDVWGQGTTVTVSS
VL: QSVLTQPPSASGSPGQSVTISCTGTSSDFGGYNSVSWYQQHPGKAPKLMIYEVSKRPSGVPDRFSGSKSGNTASLTVSGLQAEDEADYYCSSYAGSNNFDVFGTGTKVTVL
B6: 单抗4L12 (antibody, V domains shown)
VH: EVQLVESGGGLVQPGGSLRLSCAASGITVSSNYMNWVRQAPGRGLEWVSLLYSGGSTYYADSVKGRFTISRDNSKNTLYLQMNSLRAEDTAVYYCARDLITYGMDVWGQGTTVTVSS
VL: AIQLTQSPSSLSASVGDRVTITCRASQGISSYLAWYQQKPGKAPKLLIYAASTLQSGVPSRFSGSGSGTDFTLTISSLQPEDFATYYCQQLNSYPPLTFGGGTKVEIK
B7: 单抗12F5 (antibody, V domains shown)
VH: EVQLVESGGGLIQPGGSLRLSCAASGFTVSSNYMSWVRQAPGKGLEWVSVIYSGGSTFYADSVKGRFTISRDNSKNTLYLQMNSLRAEDTAVYYCARDLIDYGMDVWGQGTTVTVSS
VL: DIQLTQSPSFLSASVGDRVTITCRASQGISSYLAWYQQKPGKAPKLLIYAASTLQSGVPSRFSGSGSGTEFTLTISSLQPEDFATYYCQQLNSYPPYTFGQGTKLEIK

The test addresses SARS-CoV-2病毒的S1蛋白的RBD (SARS-CoV-2, UniProt P0DTC2 319-541). As to the kind of experiment: BLI (OctetRED96), antibody captured on AHC probe, RBD in solution from 100 nM in 3-fold dilutions, 1:1 global fit.
B1: the Kd is 4.17 nM.

B2 yielded a Kd of 2.3 nM.

B3 yielded a Kd of 3.36 nM.

The molecule B4 gave a Kd of 5.07 nM.

B5 registered a dissociation constant (Kd) of 1.21 nM.

Consider B6, for which binding was put at a Kd of 1.49 nM.

Regarding B7, the dissociation constant (Kd) worked out at 2.22 nM.
